# Measured values taken from US20170306037A1 (Novartis, published 2017).
# T1: mouse GITR extracellular domain (mouse, UniProt O35714 20-153)
# T1 construct: extracellular domain; also called murine GITR; rodent GITR
# T1 sequence (looked up): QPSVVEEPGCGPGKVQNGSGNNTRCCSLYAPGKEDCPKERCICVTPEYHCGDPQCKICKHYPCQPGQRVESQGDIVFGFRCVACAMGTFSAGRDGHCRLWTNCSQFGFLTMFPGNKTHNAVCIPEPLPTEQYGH
# T2: rat GITR extracellular domain (rat, UniProt F7FFS7 65-198)
# T2 construct: also called rodent GITR
# T2 sequence: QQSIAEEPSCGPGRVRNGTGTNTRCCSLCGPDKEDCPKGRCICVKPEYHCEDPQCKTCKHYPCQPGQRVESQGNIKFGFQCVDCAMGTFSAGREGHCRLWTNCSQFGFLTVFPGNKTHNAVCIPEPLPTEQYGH
# Legend:
# [1] = molecular target: T1, mouse GITR extracellular domain; assay: ELISA on coated GITR ECD
# Description: (§1) The plate was blocked with a solution of 1% BSA in PBS for one hour at room temperature and then rinsed three times with PBST. The MAB was then diluted to 0.5 μg/mL or 1 μg/mL in PBS and 20 μL was added to each well. The plate was incubated for 1 hour at room temperature and then washed three times with PBST. […] The plate was incubated for 1 hour at room temperature, and then washed six times with PBST. 25 μL of SureBlue TMB (KPL 52-00-02) substrate was added to each well and the plate was incubated for about 10 min at room temperature.
# [2] = molecular target: T2, rat GITR extracellular domain; assay: ELISA on coated GITR ECD
# Description: as §1
binder,measurement,setting,value
"MAB4 (IgG1 kappa) (antibody, V domains shown) VH: EVQLVESGGGLVQSGGSLRLSCAASGFSLSSYGVDWVRQAPGKGLEWVGVIWGGGGTYYASSLMGRFTISRDNSKNTLYLQMNSLRAEDTAVYYCAKHAYGHDGGFAMDYWGQGTLVTVSS VL: EIVMTQSPATLSVSPGERATLSCRASESVSSNVAWYQQRPGQAPRLLIYGASNRATGIPARFSGSGSGTDFTLTISRLEPEDFAVYYCGQSYSYPFTFGQGTKLEIKR",binding result,[1],no binding (tested: not on the sheet; paragraph 336: 0.5 or 1 µg/mL)
same,binding result,[2],no binding (tested: not on the sheet; paragraph 336: 0.5 or 1 µg/mL)
"MAB5 (IgG1 kappa) (antibody, V domains shown, also called MABS (misprint of MAB5)) VH: EVQLVESGGGLVQSGGSLRLSCAASGFSLSSYGVDWVRQAPGKGLEWLGVIWGGGGTYYTSSLMGRFTISRDNSKNTLYLQMNSLRAEDTAVYYCAKHAYGHDGGFAMDYWGQGTLVTVSS VL: EIVMTQSPATLSVSPGERATLSCRASESVSSNVAWYQQRPGQAPRLLIYGASNRATGIPARFSGSGSGTDFTLTISRLEPEDFAVYYCGQSYSYPFTFGQGTKLEIKR",binding result,[1],no binding (tested: not on the sheet; paragraph 336: 0.5 or 1 µg/mL)
same,binding result,[2],no binding (tested: not on the sheet; paragraph 336: 0.5 or 1 µg/mL)
